{
  "source": "paper PMC10812545",
  "about": "“The Binding of HSPA8 and Mitochondrial ALDH2 Mediates Oxygen-Glucose Deprivation-Induced Fibroblast Senescence” (Antioxidants, 2023)",
  "molecular_target": "the molecule itself",
  "assay": "cross-linking; DSS 500 μM, 30 min at room temperature, quenched with 10 mM Tris; NIH3T3 cells (CON, OGD, siHSPA8); Western blot for ALDH2",
  "note": "“And” between values parts separate entries of the source, which are not always exact repeats. Equal entries are not always repeated.",
  "data": [
    {"protein": "Aldehyde dehydrogenase 2 (ALDH2) (enzyme, mouse (endogenous in NIH3T3), UniProt P47738 20-519, looked up, Aldehyde dehydrogenase 2, mitochondrial, endogenous in the mouse fibroblast line NIH3T3; Seen as dimer and tetramer after DSS cross-linking; also called mitochondrial ALDH2; mitochondrial aldehyde dehydrogenase; source: endogenous, NIH3T3 lysate) SAAATSAVPAPNHQPEVFCNQIFINNEWHDAVSRKTFPTVNPSTGEVICQVAEGNKEDVDKAVKAARAAFQLGSPWRRMDASDRGRLLYRLADLIERDRTYLAALETLDNGKPYVISYLVDLDMVLKCLRYYAGWADKYHGKTIPIDGDFFSYTRHEPVGVCGQIIPWNFPLLMQAWKLGPALATGNVVVMKVAEQTPLTALYVANLIKEAGFPPGVVNIVPGFGPTAGAAIASHEGVDKVAFTGSTEVGHLIQVAAGSSNLKRVTLELGGKSPNIIMSDADMDWAVEQAHFALFFNQGQCCCAGSRTFVQENVYDEFVERSVARAKSRVVGNPFDSRTEQGPQVDETQFKKILGYIKSGQQEGAKLLCGGGAAADRGYFIQPTVFGDVKDGMTIAKEEIFGPVMQILKFKTIEEVVGRANDSKYGLAAAVFTKDLDKANYLSQALQAGTVWINCYDVFGAQSPFGGYKMSGSGRELGEYGLQAYTEVKTVTVKVPQKNS", "values": [
      {"measurement": "stoichiometry N", "value": "2 and 4"}
    ]}
  ]
}
